The record followed here is patent US20250025549A1 (NOVAVAX, published 2025).

For the assay, the target named is T1, human angiotensin-converting enzyme 2 precursor (hACE2), His-tagged (human, UniProt Q9BYF1 18-740).
T1 construct: also called His-tagged human ACE2; histidine-tagged hACE2
Put plainly: bio-layer interferometry. For orientation: BLI is a label-free optical method that tracks binding on a fibre tip over time.

T1 sequence (Q9BYF1 18-740 limits assumed): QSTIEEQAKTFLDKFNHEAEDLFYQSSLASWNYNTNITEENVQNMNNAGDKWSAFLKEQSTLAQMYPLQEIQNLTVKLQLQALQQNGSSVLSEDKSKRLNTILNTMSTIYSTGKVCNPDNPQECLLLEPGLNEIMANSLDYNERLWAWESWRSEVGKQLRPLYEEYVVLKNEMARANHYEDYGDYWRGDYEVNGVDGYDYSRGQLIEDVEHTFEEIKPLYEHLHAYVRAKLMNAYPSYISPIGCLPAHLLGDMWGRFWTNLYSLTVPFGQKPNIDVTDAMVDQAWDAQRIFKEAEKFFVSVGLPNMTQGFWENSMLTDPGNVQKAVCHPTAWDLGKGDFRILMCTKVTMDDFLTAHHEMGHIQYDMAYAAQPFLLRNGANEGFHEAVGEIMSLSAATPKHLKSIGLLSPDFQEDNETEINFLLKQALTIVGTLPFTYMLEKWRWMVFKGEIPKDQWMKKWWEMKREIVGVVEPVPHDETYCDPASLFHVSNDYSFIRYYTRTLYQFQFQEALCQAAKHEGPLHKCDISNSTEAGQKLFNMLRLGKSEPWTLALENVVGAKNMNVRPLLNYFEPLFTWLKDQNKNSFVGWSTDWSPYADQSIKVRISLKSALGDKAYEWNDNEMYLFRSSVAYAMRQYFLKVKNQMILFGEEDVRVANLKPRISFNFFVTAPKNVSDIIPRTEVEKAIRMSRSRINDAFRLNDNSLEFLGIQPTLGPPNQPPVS

B1: MERS S protein (other)
chain: YVDVGPDSVKSACIEVDIQQTFFDKTWPRPIDVSKADGIIYPQGRTYSNITITYQGLFPYQGDHGDMYVYSAGHATGTTPQKLFVANYSQDVKQFANGFVVRIGAAANSTGTVIISPSTSATIRKIYPAFMLGSSVGNFSDGKMGRFFNHTLVLLPDGCGTLLRAFYCILEPRSGNHCPAGNSYTSFATYHTPATDCSDGNYNRNASLNSFKEYFNLRNCTFMYTYNITEDEILEWFGITQTAQGVHLFSSRYVDLYGGNMFQFATLPVYDTIKYYSIIPHSIRSIQSDRKAWAAFYVYKLQPLTFLLDFSVDGYIRRAIDCGFNDLSQLHCSYESFDVESGVYSVSSFEAKPSGSVVEQAEGVECDFSPLLSGTPPQVYNFKRLVFTNCNYNLTKLLSLFSVNDFTCSQISPAAIASNCYSSLILDYFSYPLSMKSDLSVSSAGPISQFNYKQSFSNPTCLILATVPHNLTTITKPLKYSYINKCSRFLSDDRTEVPQLVNANQYSPCVSIVPSTVWEDGDYYRKQLSPLEGGGWLVASGSTVAMTEQLQMGFGITVQYGTDTNSVCPKLEFANDTKIASQLGNCVEYSLYGVSGRGVFQNCTAVGVRQQRFVYDAYQNLVGYYSDDGNYYCLRACVSVPVSVIYDKETKTHATLFGSVACEHISSTMSQYSRSTRSMLKRRDSTYGPLQTPVGCVLGLVNSSLFVEDCKLPLGQSLCALPDTPSTLTPRSVRSVPGEMRLASIAFNHPIQVDQLNSSYFKLSIPTNFSFGVTQEYIQTTIQKVTVDCKQYVCNGFQKCEQLLREYGQFCSKINQALHGANLRQDDSVRNLFASVKSSQSSPIIPGFGGDFNLTLLEPVSISTGSRSARSAIEDLLFDKVTIADPGYMQGYDDCMQQGPASARDLICAQYVAGYKVLPPLMDVNMEAAYTSSLLGSIAGVGWTAGLSSFAAIPFAQSIFYRLNGVGITQQVLSENQKLIANKFNQALGAMQTGFTTTNEAFHKVQDAVNNNAQALSKLASELSNTFGAISASIGDIIQRLDVLEQDAQIDRLINGRLTTLNAFVAQQLVRSESAALSAQLAKDKVNECVKAQSKRSGFCGQGTHIVSFVVNAPNGLYFMHVGYYPSNHIEVVSAYGLCDAANPTNCIAPVNGYFIKTNNTRIVDEWSYTGSSFYAPEPITSLNTKYVAPQVTYQNISTNLPPPLLGNSTGIDFQDELDEFFKNVSTSIPNFGSLTQINTTLLDLTYEMLSLQQVVKALNESYIDLKELGNYTYYNKWPWYIWLGFIAGLVALALCVFFILCCTGCGTNCMGKLKCNRCCDRYEEYDLEPHKVHVH
notes: also called MERS-CoV spike protein
For the molecule B1, the binding result is “no binding”.
